# Laboratory results taken from US20030027165A1 (published 2003).
# T1: pol κ76, 76-kDa alternatively spliced isoform of DNA polymerase κ (human, UniProt Q9UBT6 1-870)
# T1 construct: 672-residue open reading frame (GenBank AF315602), cloned by RT-PCR from human foreskin RNA with ON-DIN5'm and ON-DIN-THc; It was inserted BamHI/SalI into FLAG-modified pGBT9 and pGAD424; also called 76-kDa pol κ isoform; not shown: N-terminal yeast two-hybrid fusion part from the FLAG-modified pGBT9 or pGAD424 vector (Clontech) plus FLAG peptide; No
# T1 sequence: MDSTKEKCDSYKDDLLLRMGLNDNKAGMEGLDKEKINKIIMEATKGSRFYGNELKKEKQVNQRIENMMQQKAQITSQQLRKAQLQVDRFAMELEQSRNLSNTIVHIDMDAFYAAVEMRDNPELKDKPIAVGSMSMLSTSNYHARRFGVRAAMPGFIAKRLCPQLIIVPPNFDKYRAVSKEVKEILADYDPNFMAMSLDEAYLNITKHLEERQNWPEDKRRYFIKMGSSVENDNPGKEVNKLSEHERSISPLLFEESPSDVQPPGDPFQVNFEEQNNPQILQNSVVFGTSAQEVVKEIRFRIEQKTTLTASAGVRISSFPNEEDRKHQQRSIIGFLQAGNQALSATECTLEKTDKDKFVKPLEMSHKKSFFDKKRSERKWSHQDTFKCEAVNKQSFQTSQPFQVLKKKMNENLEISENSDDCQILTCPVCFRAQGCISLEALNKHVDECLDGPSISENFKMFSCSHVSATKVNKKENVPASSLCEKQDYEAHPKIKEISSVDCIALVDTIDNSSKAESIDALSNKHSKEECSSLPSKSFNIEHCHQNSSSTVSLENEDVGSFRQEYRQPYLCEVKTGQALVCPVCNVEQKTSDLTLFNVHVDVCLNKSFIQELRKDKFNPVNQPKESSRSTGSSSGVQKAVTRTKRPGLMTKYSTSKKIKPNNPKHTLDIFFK
# T2: pol κ, DNA polymerase κ, the primary protein product of POLK (human, UniProt Q9UBT6 1-870)
# T2 construct: not shown: N-terminal yeast two-hybrid fusion part from the FLAG-modified pGBT9 or pGAD424 vector (Clontech) plus FLAG peptide; No
# T2 sequence (looked up): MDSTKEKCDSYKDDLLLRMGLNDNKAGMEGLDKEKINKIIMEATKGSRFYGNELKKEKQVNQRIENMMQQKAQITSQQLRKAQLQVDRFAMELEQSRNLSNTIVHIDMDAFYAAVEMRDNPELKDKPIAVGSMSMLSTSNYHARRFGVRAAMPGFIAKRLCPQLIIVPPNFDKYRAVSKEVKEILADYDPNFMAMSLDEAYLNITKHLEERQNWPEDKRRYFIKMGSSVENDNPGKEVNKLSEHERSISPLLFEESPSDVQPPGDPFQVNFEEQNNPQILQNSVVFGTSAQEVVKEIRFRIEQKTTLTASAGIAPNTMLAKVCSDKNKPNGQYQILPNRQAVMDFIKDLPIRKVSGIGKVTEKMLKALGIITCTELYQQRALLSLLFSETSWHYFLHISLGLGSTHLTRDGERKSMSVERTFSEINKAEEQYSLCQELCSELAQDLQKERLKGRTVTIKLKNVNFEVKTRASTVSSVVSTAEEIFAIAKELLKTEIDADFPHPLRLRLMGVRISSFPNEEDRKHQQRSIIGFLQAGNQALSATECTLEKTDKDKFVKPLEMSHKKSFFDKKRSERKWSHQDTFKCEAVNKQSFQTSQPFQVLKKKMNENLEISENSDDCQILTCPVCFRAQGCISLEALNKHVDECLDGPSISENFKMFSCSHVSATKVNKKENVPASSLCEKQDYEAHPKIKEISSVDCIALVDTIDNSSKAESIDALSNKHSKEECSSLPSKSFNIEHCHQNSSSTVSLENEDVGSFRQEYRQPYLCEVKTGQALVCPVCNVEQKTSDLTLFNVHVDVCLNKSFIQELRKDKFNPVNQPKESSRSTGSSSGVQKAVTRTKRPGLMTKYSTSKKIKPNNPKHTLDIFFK
# How the values were obtained:
# [1] = target: T1, pol κ76, 76-kDa alternatively spliced …; experiment: yeast two-hybrid
# [2] = target: T2, pol κ, DNA polymerase κ, the primary …; experiment: yeast two-hybrid
binding result [1],binding result [2],Binder
no binding,no binding,"GPBPΔ26, alternatively spliced GPBP variant deleted for 26 amino acid residues (enzyme, The two-hybrid construct is not described; also called GPBP?26; GPBPD26) MSDNQSWNSSGSEEDPETESGPPVERCGVLSKWTNYIHGWQDRWVVLKNNALSYYKSEDETEYGCRGSICLSKAVITPHDFDECRFDISVNDSVWYLRAQDPDHRQQWIDAIEQHKTESGYGSESSLRRHGSMVSLVSGASGYSATSTSSFKKGHSLREKLAEMETFRDILCRQVDTLQKYFDACADAVSKDELQRDKVVEDDEDDFPTTRSDGDFLHSTNGNKEKLFPHVTPKGINGIDFKGEAITFKATTAGILATLSHCIELMVKREDSWQKRLDKETEKKRRTEEAYKNAMTELKKKSHFGGPDYEEGPNSLINEEEFFDAVEAALDRQDKIEEQSQSEKVRLHWPTSLPSGDAFSSVGTHRFVQKVEEMVQNHMTYSLQDVGGDANWQLVVEEGEMKVYRREVEENGIVLDPLKATHAVKGVTGHEVCNYFWNVDVRNDWETTIENFHVVETLADNAIIIYQTHKRVWPASQRDVLYLSVIRKIPALTENDPETWIVCNFSVDHDSAPLNNRCVRAKINVAMICQTLVSPPEGNQEISRDNILCKITYVANVNPGGWAPASVLRAVAKREYPKFLKRFTSYVQEKTAGKPILF"
no binding,no binding,"Goodpasture antigen binding protein (GPBP) (enzyme, human, UniProt Q9Y5P4 1-624, looked up) MSDNQSWNSSGSEEDPETESGPPVERCGVLSKWTNYIHGWQDRWVVLKNNALSYYKSEDETEYGCRGSICLSKAVITPHDFDECRFDISVNDSVWYLRAQDPDHRQQWIDAIEQHKTESGYGSESSLRRHGSMVSLVSGASGYSATSTSSFKKGHSLREKLAEMETFRDILCRQVDTLQKYFDACADAVSKDELQRDKVVEDDEDDFPTTRSDGDFLHSTNGNKEKLFPHVTPKGINGIDFKGEAITFKATTAGILATLSHCIELMVKREDSWQKRLDKETEKKRRTEEAYKNAMTELKKKSHFGGPDYEEGPNSLINEEEFFDAVEAALDRQDKIEEQSQSEKVRLHWPTSLPSGDAFSSVGTHRFVQKPYSRSSSMSSIDLVSASDDVHRFSSQVEEMVQNHMTYSLQDVGGDANWQLVVEEGEMKVYRREVEENGIVLDPLKATHAVKGVTGHEVCNYFWNVDVRNDWETTIENFHVVETLADNAIIIYQTHKRVWPASQRDVLYLSVIRKIPALTENDPETWIVCNFSVDHDSAPLNNRCVRAKINVAMICQTLVSPPEGNQEISRDNILCKITYVANVNPGGWAPASVLRAVAKREYPKFLKRFTSYVQEKTAGKPILF"
